According to patent US20090324601A1 (published 2009):

What was measured:
Assay in all cases: method not described
PDGFR-beta = PDGFR-beta (UniProt P09619 33-530, limits assumed)
FLT3 = FLT3 (UniProt P36888 27-541, limits assumed)
c-kit = c-kit (UniProt P10721 26-520, limits assumed)
CSF-1R = CSF-1R (UniProt P07333 20-512, limits assumed)

Measured: binding result

Sequence of CSF-1R (P07333 20-512 limits assumed): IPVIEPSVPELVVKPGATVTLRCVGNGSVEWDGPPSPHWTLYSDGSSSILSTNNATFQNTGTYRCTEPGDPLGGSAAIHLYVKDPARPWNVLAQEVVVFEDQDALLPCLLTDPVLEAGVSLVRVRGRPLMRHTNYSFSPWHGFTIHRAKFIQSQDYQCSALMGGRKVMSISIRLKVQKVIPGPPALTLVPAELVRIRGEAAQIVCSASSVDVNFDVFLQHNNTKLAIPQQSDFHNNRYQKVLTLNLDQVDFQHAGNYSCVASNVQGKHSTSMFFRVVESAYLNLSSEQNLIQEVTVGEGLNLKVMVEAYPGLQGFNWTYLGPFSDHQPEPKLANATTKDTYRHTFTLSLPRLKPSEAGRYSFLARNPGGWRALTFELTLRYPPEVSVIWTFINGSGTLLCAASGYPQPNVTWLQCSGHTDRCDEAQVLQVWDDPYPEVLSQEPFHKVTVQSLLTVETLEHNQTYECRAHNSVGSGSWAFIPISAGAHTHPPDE
Sequence of PDGFR-beta (P09619 33-530 limits assumed): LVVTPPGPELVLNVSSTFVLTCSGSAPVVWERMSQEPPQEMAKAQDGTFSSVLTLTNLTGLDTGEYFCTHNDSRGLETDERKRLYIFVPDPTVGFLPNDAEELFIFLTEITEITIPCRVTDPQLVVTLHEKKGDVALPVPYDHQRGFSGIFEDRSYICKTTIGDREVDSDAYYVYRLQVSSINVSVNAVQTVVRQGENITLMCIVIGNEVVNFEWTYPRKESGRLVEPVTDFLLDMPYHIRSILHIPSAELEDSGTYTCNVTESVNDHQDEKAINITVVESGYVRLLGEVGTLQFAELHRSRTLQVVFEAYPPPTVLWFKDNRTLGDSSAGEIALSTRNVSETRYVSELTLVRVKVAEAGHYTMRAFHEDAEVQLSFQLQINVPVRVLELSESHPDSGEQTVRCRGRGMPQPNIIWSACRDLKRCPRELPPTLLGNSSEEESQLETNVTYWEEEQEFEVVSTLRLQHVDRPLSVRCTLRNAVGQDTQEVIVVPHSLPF
Sequence of c-kit (P10721 26-520 limits assumed): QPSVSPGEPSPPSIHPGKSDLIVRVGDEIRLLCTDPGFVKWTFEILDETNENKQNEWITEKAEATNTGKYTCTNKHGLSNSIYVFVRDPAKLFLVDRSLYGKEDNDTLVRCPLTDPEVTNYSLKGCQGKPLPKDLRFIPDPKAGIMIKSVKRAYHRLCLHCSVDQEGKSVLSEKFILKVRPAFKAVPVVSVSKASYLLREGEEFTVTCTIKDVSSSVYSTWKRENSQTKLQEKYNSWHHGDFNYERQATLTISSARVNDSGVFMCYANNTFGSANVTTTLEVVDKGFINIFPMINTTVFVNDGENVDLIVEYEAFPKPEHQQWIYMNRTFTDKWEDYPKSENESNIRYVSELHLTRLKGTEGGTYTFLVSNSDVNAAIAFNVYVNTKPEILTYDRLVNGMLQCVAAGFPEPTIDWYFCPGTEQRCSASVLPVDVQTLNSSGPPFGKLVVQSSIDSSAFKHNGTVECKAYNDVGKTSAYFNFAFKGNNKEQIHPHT

B1: 2.414.2 (antibody, V domains shown)
VH: QLQLQESGPGLVKPSETLSLTCTVSGGSISSSNYYWGWIRQPPGKGLEWIGTIYYTGSTYYNPSLKSRVTISVDTSKNQFSLKLSSVTAADTAVYYCARHHWVFDYWGQGTLVTVSS
VL: EIVLTQSPDFLSVTPKEKVTITCRASQIIGSSLHWYQQKPDQSPKLLIKYASQSFSGVPSRFSGSGSGTDFTLTLNSLEAEDAATYYCHQSTILPWTFGQGTKVEIK
notes: Variable regions only
no binding: all assays above

B2: 2.542.2 (antibody, V domains shown)
VH: QLQLQESGPGLVKPSETLSLTCTVSGGSISSSTYYWGWIRQPPGKGLEWIGTIYYSGSTYYNPSLKSRVTISVDTSKNQFSLKLNSVTAADTAVYYCARHHWVFDYWGQGTLVTVSS
VL: EIVLTQSPDFLSVTPKEKVTITCRASQIIGSSLHWYQQKPDQSPNLLIKYASQSVSGVPSRFSGSGSGTDFTLTLNSLEAEDAATYYCHQSTILPWTFGQGTKVEIK
notes: Variable regions only
no binding: all assays above

B3: 3.472.1.1 (antibody, V domains shown)
VH: QVQLVESGGGVVQPGRSLRLSCAASGFTFSSYGMHWVRQAPGKGLEWVAVIWYDRSNKYYVDSVKGRFTISRDNSKNTLYLQMNSLRAEDTAVYYCAGGRSRGAFDYWGQGTLVTVSS
VL: DIQMTQSPSSVSASVGDRVTITCRASQDISSWLAWYQQKPGKAPKLLIFAASSLQSGVPSRFSGSGSGTDFTLTISSLQPEDFATYYCQRTSSFPRTFGQGTKVEIK
notes: Variable regions only
no binding: all assays above

B4: 3.805.1.3 (antibody, V domains shown)
VH: QVQLVESGGGVVQPGRSLRLSCAASGFTFSSYGMHWVRQAPGKGLEWVAVIWYDRSNKYYADSVKGRFTISRDNSKNTLYLQMNSLRAEDTAVYYCAGGRSRGAFDYWGQGTLVTVSS
VL: DIQMTQSPSSVSASVGDRVTITCRASQGISSWLAWYQQKPGKAPNLLIYAASSLQSGVPSRFSGSGSGTDFTLTISSLQPEDFATYYCQRTNNFPRTFGQGTKVEIK
notes: Variable regions only
no binding: all assays above

B5: 3.772.2 (antibody, V domains shown)
VH: QVQLVESGGGVVQPGRSLRLSCAASGFTFSSYGMHWVRQAPGKGLEWVAVIWYDRSNKYYADSVKGRFTISRDNSKNTLYLQMNSLRAEDTAVYYCAGGRSRGAFDFWGQGTLVTVSS
VL: DIQMTQSPSSVSASVGDRVTITCRASQDISSWLAWYQQKAGKAPKLLIYAASSLQSGVPSRFSGSGSGTDFTLTISSLQPEDFATYYCQRTNSFPRTFGQGTKVEIK
notes: Variable regions only
no binding: all assays above

B6: 2.1954.2 (antibody, V domains shown)
VH: QVQLVESGGGVVQPGRSLRLSCAASGFSFSIYGMHWVRQAPGKGLEWVAVIWFDGSNKYYADSVKGRFTISRDNSKNTLYLQMNSLRAEDTALYYCARDKASYYGSGMDYWGQGTLVTVSS
VL: EIVLTQSPGTLSLSPGERATLSCRASQSVSSTYLAWYQHRPGQAPRLLISGASRRATGIPDRFSGSGSGTDFTLTISRLEPEDFAVYYCQHYGSSFTWTFGQGTKVEIK
notes: Variable regions only
no binding: all assays above

B7: 2.737.1.4 (antibody, V domains shown)
VH: QVQLVESGGGLVKPGGSLRLSCAASGFTFRDYYMSWIRQAPGKGLEWVAFISSSGSIIYYADSVKGRFTISRDNAKNSLFLQMNSLRAEDTAVYYCARDGHIAARGMDVWGQGTTVTVSS
VL: DIQMTQSPSSLSASVGDRVTITCRASQSINKYINWYQQKPGKAPKLLIYAASSLQSGVPSRFNGSGSGTDFTFTINTLQPEDFATYYCQQTYSTPPITFGQGTRLEIK
notes: Variable regions only
no binding: all assays above
